Where no end group is shown, it is not given here.
Key:
Type in all cases: cell-based
human PTH-1 receptor = biological target: T1, human PTH-1 receptor (Homo sapiens, UniProt Q03431); assay: cAMP-stimulating activity in HKRK-B7 cells (LLC-PK1 stably transfected with human PTH-1 receptor), RIA; conditions: HKRK-B7 cells
T1 construct: expressed in transfected cells; host or cells: HKRK-B7 (LLC-PK1 stably transfected, pCDNA-1-based plasmid)
T1 sequence (Q03431 27-593): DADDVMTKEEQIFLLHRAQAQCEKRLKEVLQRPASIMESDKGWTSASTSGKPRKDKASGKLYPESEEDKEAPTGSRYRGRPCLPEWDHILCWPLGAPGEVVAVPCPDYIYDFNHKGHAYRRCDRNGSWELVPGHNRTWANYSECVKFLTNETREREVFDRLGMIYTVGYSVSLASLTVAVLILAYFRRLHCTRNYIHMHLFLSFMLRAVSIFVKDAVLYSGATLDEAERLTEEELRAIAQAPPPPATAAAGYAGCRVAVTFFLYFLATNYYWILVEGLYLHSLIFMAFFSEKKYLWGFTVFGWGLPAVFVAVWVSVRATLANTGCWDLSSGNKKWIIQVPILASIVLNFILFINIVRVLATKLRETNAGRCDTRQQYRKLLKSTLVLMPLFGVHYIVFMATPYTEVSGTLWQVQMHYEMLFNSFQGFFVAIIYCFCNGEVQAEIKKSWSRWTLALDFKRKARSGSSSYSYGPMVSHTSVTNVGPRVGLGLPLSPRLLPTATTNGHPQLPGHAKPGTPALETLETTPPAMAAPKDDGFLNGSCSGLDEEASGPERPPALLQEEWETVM
Procedure: FIG. 2. cAMP-stimulating Activity of PTH Fragments in LLC-PK1 Cells. A) Rat PTH(1–34) analog or amino-terminal rPTH fragments were tested for cAMP-stimulating activity in an LLC-P1-derived cell line (HKRK-B7) stably transfected with the human PTH-1 receptor. Cells were treated with peptide at the indicated doses for 60 min at 22° C. Intracellular cAMP was measured by RIA, as described in Experimental Procedures. Shown are combined data (mean±s.e.m.) from 3 separate experiments, each performed in duplicate. B) HKRK-B7 cells, or untransfected LLC-PK1 were treated with rPTH(1–34) or rPTH(1–14), and intracellular cAMP was measured. Shown are data (mean±s.e.m.) from a single representative experiment performed in duplicate.
FIG. 3. Alanine-scan of PTH(1–14). HKRK-B7 cells were treated with 100 mM of one of 14 different rPTH(1–14) analogs, each having a different alanine-substitution at the indicated amino acid position. The resulting cAMP levels were determined as described in Experimental Procedures. Shown are the combined data (mean±s.e.m.) from three separate experiments, each performed in duplicate. The mean (mean±s.e.m.) basal cAMP levels observed in the three experiments was 2.1±0.1 pmole/well, and the maximum response to rPTH(1–34) at 0.1 mM was 254±16 pmole/well.
Cell Culture and DNA Transfection: COS-7 and HKRK-B7 cells were cultured at 37° C. in Dulbecco's modified Eagle's medium (DMEM) supplemented with fetal bovine serum (10%); penicillin G (20 units/ml), streptomycin sulfate (20 μg/ml) and amphotericin B (0.05 μg/ml) in a humidified atmosphere containing 5% CO2. Twenty-four to 16 hours prior to assay, cells in 24-well plates were shifted to a humidified incubator containing 5% CO2 that was set at 33° C. Stock solutions of EGTA/trypsin and antibiotics were from GIBCO; fetal bovine serum was from Hyclone Laboratories (Logan, Utah). Derivation and characterization of the HKRK-B7 cell line by stable transfection of LLC-PK1 cells with a pCDNA-1-based plasmid (In Vitrogen, San Diego, Calif.) encoding the hPTH-1 receptor was described previously (Takasu, H. and Bringhurst, F., Endocrinology, in press (1998)). These cells express PTH-1 receptors at a surface density of about 1×10^6 PTH-binding sites per cell. The HKRK-B7 cells were used for functional assays 24 to 72 hours after the cell monolayer reached confluency.
(§1) Intracellular cyclic AMP: Transfected COS-7 or HKRK-B7 cells were rinsed with 500 ml of binding buffer, (50 mM Tris-HCl, pH 7.7, 100 mM NaCl, 5 mM KCl, 2 mM CaC12, 5% heat-inactivated horse serum, 0.5% heat-inactivated fetal bovine serum) and 200 ml of IBMX buffer (DMEM containing 2 mM IBMX, 1 mg/ml bovine serum albumin, 35 mM Hepes-NaOH, pH 7.4) and […] of binding buffer or binding buffer containing various amounts of peptide were added. The plates were incubated for 60 minutes at room temperature. The buffer was then withdrawn and the cells were frozen on dry ice, treated with 0.5 ml of 50 mM HCl, and refrozen. After the thawing, the lysate was diluted 30-fold in dH20 and an aliquot was analyzed for cAMP content by determined radioimmunoassay using unlabeled cAMP as a standard.
Amino-terminal peptide fragments based on the rat PTH sequence and ranging in length from PTH(1–9) to PTH(1–15) were synthesized and tested for activity in an LLC-PK1-derived cell line called HKRK-B7 which stably expresses high levels (1×10^6 receptors/cell) of the cloned human PTH-1 receptor (Takasu, H. and Bringhurst, F., Endocrinology, in press (1998)).

[1] = biological target: T2, truncated rat PTH-1 receptor (rΔNt) (Rattus norvegicus, UniProt P25961, E586G); assay: cAMP response in COS-7 cells transiently transfected with truncated rat PTH-1 receptor (rΔNt); conditions: secretin(1–27) 1 mM
T2 construct: contains an open reading frame encoding a protein of about 435 amino acid residues; expressed in transfected cells; host or cells: COS-7, transient (DEAE-dextran), pCDNA-1 based plasmid
T2 sequence (P25961 with tags, fused parts or gaps E586G): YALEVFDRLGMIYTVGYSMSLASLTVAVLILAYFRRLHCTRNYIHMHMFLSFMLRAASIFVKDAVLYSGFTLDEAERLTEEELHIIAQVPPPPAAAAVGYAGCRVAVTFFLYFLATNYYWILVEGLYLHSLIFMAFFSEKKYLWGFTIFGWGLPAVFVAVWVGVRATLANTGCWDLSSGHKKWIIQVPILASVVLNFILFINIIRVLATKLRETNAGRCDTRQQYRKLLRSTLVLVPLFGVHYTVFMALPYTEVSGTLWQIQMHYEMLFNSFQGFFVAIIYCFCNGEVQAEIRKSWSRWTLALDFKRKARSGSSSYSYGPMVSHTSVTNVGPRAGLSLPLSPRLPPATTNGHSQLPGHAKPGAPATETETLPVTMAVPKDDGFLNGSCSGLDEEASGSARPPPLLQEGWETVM
Description: FIG. 4. PTH Responses of Intact and Truncated PTH-1 Receptors in COS-7 Cells. Shown at the top are schematics of the intact (A) and truncated (B) rat PTH-1 receptors used for transient transfection of COS-7 cells, and subsequent cAMP response assays. The conserved extracellular cysteine residues are depicted as open circles and numbered according to sequence position, and the nine amino acids of the epitope tag (HA) in rWT-HA are shaded. The tics at residue 26 and 181 indicate the endpoints of the deletion in rΔNt. Based on the predicted signal peptide cleavage site at Ala-22, residues 23–25 in rΔNt are joined to residue 182. The cAMP responses of COS-7 cells expressing the intact receptor (C) and rΔNt (D) to rPTH(1–34) (J) or rPTH(1–14) (C) are also shown. The graphs show combined data (mean±s.e.m.) from five separate experiments, each performed in duplicate. […]
FIG. 6. Specificity of the Truncated Ligand and PTH Receptor. COS-7 cells transiently transfected with either rWT-HA (A), rΔNt (B), or the intact rat secretin receptor (C), were treated with the indicated peptides for 60 min at 22° C., and the resulting intracellular cAMP levels were quantified by RIA. Concentration of peptides present during the incubations were: rPTH(1–34), 0.1 mM; rPTH(1–14) 100 mM; secretin(1–27). […] Shown are data (mean±s.e.m.) from one experiment performed in duplicate, and this was repeated twice more with equivalent results.
For studies with the intact and truncated rat PTH-1 receptors, transient transfections of COS-7 cells were performed using DEAE-dextran as described previously (Bergwitz, C., et al., J. Biol. Chem. 272:28861–28868)). The construction and initial characterization of the pCDNA-1 based plasmids encodin either the intact or truncated rat PTH-1 receptor has been described previously (Lee, C., et al., Endocrinology 135(4):1488–1495)). […] The truncated rat PTH-1 receptor (rΔNt) is deleted for exons E1 through exon G (residues 26 to 181). Assuming that signal peptidase cleavage occurs between Ala-22 and Tyr-23 (Nielsen, H., et al., Protein Engineering 10:1–6 (1997)), rΔNt is predicted to have for its N-terminus residues Dautzenberg, F., et al., Proc. Natl. Acad. Sci. 95:4941–4946 (1998); Holtmann, M., et al., J. Biol. Chem. 270:14394–14398 (1995); DeAlmeida, V. and Mayo, K., Mol. Endo. 12:750–765 (1998)) joined to Glu-182 (FIG. 3B). COS-7 cells were transfected in 24-well plates when the cells were 85 to 95% of confluency, using 200 ng of plasmid DNA that was purified by cesium chloride/ethidium bromide gradient centrifugation for each well. Assays were conducted 72 to 96 hours after transfection. Under these conditions about ˜20% of the COS-7 cells become transfected and express about 5×10^6 surface PTH receptors per cell (Bergwitz, C., et al., J. Biol. Chem. 272:28861–28868)).
as §1
Experiments utilized COS-7 cells transfected with either the intact rat PTH-1 receptor (rWT-HA, FIG. 4A) or a truncated rat PTH-1 receptor with most of the amino-terminal extracellular domain deleted (rΔNt, FIG. 4B).

rat secretin receptor = biological target: T3, rat secretin receptor (Rattus norvegicus, UniProt P23811); assay: cAMP response in COS-7 cells transfected with the rat secretin receptor; conditions: secretin(1–27) 1 mM; COS-7 cells transfected with the secretin receptor
T3 construct: expressed in transfected cells; host or cells: COS-7, transient
T3 sequence (P23811 26-449): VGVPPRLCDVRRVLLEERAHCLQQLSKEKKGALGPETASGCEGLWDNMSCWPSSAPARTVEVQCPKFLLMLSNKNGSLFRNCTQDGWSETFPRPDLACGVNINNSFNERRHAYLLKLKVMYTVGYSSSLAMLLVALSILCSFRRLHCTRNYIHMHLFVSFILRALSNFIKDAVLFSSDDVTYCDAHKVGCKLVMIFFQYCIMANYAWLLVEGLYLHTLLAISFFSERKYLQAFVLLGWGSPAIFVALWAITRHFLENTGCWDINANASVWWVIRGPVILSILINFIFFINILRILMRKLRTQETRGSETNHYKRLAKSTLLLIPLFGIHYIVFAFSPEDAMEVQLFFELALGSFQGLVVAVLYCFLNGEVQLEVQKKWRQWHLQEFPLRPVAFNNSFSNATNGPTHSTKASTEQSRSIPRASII
Procedure: FIG. 6. Specificity of the Truncated Ligand and PTH Receptor. COS-7 cells transiently transfected with either rWT-HA (A), rΔNt (B), or the intact rat secretin receptor (C), were treated with the indicated peptides for 60 min at 22° C., and the resulting intracellular cAMP levels were quantified by RIA. […] 1 mM and secretin(1–13), 100 mM. Shown are data (mean±s.e.m.) from one experiment performed in duplicate, and this was repeated twice more with equivalent results.
as §1
In order to test whether PTH(1–14) and rΔNt retained the appropriate recognition specificity for the corresponding parent ligand, cross-reactivity experiments were done using secretin ligands and the cloned rat secretin receptor. […] Cells expressing rΔNt responded to PTH(1–34) and PTH(1–14) but not to secretin(1–27) (1 mM) or secretin(1–13) ([…]) (FIG. 5B). Thus, the recognition specificity of PTH(1–14) and rΔNt appear to replicate that of the intact parent molecules. No evidence for relaxed specificity was detected in these studies (FIG. 6).

In the case of “PH(1–13): Amino-terminal peptide fragment based on the rat PTH sequence, residues 1–13, C-terminally amidated (AVSEIQLMHNLGK-NH2)”, the “increase in cAMP accumulation (in words)” value (human PTH-1 receptor) is reported as “little or no increase”.

With “secretin(1–27): secretin ligand used in cross-reactivity experiments” the “cAMP response of cells expressing rΔNt (in words)” value [1] was “not” and the “increase in cAMP levels” value (rat secretin receptor) was 50 fold.

In the case of “secretin(1–13): truncated secretin ligand used in cross-reactivity experiments (HSDGTFTSELSRL; not fully specified (C-terminus); ends and bridges not checked; UniProt P09683 28-40, looked up, fragment)”, the “cAMP response of cells expressing rΔNt (in words)” value [1] is reported as “not”.

With “PTH(1–15): Amino-terminal peptide fragment based on the rat PTH sequence, residues 1–15, C-terminally amidated (AVSEIQLMHNLGKHL-NH2)” the “doses required for cAMP activation compared with the dose required for PTH(1–34)” value (human PTH-1 receptor) was “five to six orders of magnitude higher” and the “increase in intracellular cAMP levels relative to the basal cAMP level” value (human PTH-1 receptor; 60 min at 22° C.) was “about 20 fold”.
